The text below walks through data of patent US20170022503A1 (NATIONAL UNIVERSITY OF SINGAPORE, published 2017).

B1: flag-tagged WARS2(L53F) mutant (human) (enzyme)
chain: LHKGSAAAPALQKDSKKRVFSGIQPTGILHLGNYFGAIESWVRLQDEYDSVLYSIVDLHSITVPQDPAVLRQSILDMTAVLLACGINPEKSILFQQSQVSEHTQLSWILSCMVRLPRLQHLHQWKAKTTKQKHDGTVGLLTYPVLQAADILLYKSTHVPVGEDQVQHMELVQDLAQGFNKKYGEFFPVPESILTSMKKVKSLRDPSAKMSKSDPDKLATVRITDSPEEIVQKFRKAVTDFTSEVTYDPAGRAGVSNIVAVHAAVTGLSVEEVVRRSAGMNTARYKLAVADAVIEKFAPIKREIEKLKLDKDHLEKVLQIGSAKAKELAYTVCQEVKKLVGFL
notes: also called mutant WARS2; not shown: C-terminal myc-DDK (flag) tag of the Origene construct
B2: glyceraldehyde-3-phosphate dehydrogenase (GAPDH) (enzyme)
chain: not shown
notes: GAIT complex component; endogenous protein of HUVEC cells

Assay in all cases: co-IP of flag-tagged protein from HUVEC cells, blot
The target in experiment [1] is T1, glutamyl-prolyl tRNA synthetase (EPRS) (human, UniProt P07814 1-1512).
T1 construct: GAIT complex component; endogenous protein of HUVEC cells

Experiment [2] addresses Ribosomal Protein L 13a (RPL13a) (human, UniProt P40429 2-203).
The target in experiment [3] is B1.

T1 sequence (P07814 whole entry): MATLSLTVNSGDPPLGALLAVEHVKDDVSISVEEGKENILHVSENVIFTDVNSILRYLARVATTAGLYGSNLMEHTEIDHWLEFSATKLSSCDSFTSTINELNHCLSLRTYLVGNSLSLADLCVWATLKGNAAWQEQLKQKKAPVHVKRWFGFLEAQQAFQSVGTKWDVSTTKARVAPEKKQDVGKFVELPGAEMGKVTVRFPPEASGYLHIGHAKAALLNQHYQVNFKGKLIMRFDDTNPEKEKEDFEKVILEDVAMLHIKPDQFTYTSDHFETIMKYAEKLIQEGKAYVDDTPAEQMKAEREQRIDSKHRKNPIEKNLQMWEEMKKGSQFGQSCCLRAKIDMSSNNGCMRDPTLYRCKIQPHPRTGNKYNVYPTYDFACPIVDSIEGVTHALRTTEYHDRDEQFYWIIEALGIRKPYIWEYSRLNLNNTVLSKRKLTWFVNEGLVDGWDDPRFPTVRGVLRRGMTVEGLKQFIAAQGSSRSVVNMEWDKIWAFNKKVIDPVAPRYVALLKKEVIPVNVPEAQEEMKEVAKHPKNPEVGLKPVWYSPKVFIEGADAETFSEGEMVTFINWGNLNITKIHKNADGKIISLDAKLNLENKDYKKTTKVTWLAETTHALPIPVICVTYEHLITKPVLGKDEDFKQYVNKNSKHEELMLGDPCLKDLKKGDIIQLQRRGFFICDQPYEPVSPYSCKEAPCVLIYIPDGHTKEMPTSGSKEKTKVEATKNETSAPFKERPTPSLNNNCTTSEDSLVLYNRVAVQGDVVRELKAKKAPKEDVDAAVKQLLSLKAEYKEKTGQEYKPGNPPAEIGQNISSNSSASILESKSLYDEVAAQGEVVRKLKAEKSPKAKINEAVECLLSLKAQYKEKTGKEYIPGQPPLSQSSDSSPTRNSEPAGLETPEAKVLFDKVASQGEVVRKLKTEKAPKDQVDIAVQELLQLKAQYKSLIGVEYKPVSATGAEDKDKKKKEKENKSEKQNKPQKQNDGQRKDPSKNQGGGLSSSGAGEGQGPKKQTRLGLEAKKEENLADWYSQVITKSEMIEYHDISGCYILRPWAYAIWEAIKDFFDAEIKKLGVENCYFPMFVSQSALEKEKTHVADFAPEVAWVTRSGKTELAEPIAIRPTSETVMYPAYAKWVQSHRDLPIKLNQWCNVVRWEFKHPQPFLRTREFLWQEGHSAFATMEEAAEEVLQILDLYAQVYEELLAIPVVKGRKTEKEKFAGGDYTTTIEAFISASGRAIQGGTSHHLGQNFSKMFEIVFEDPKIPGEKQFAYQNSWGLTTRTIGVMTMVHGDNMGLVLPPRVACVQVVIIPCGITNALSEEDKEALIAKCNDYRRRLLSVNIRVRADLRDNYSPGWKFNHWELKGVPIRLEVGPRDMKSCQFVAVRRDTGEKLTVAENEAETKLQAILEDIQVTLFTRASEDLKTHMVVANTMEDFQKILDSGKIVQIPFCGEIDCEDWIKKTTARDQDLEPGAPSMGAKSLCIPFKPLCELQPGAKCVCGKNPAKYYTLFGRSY

For the molecule B1, the binding result in experiment [1] and in experiment [2] was “no binding” each time.
Regarding B2, the binding result in experiment [3] is on record as “no binding”.
